This test deals with peptide 24.end. The experiment in a line: ELISA on coated peptide 24.end, A450 [B]. In general terms: In an ELISA, binding on a coated surface is turned into a signal by an enzyme label.

B1: 2.6h11 (antibody, V domains shown)
VH: EVQLVESGGGLVQPGRSLRLSCTASGFTFGDYVMSWFRQAPGKGLEWVGFIRSKAHGGTTEYAASVNGRFSISRDDSKTIAYLQMNSLKSEDTAVYYCTWLRNDYYYGMDVWGLGTTVTVSS
VL: DIMMTQSPLSLPVTPGEPASISCRSSQRLLHSNGYSYVDWYLQKPGQSPQLLIYLGSDRASGVPDRFSGSGSGTDFTLKISRVEAEDVGVYYCMQTLQTPWTFGQGTKVEIKR
Turning to B1, the binding result is given as “no binding”.
